Source: the RNAGym collection of RNA variant scans (doi:10.1021/acssynbio.7b00057)

B1: Pistol ribozyme (parent)
chain: GGGUCGUUGUUCCAUAAUCGCGUGGAUAUGGCACGCAAGUUUCUACCGGGCACCGUAAAUGUCCGACUGGAGCCGUUCGGGCGGCUAUAAACAGACCUCAGGCCCGAAGCGUGGCGGCACCUGCCGCCGGUGGUAAAAAAGAUCGGAAGAGCACACGUCU

Variants of: B1
Assay: aptazyme ON/OFF ratio, guanine; higher = stronger switching; co-transcriptional cleavage with and without guanine

Variant | aptazyme ON/OFF ratio
GGGUCGUAACCCUAUAAUCGCGUGGAUAUGGCACGCAAGUUUCUACCGGGCACCGUAAAUGUCCGACUGGAGCCGUUCGGGCGGCUAUAAACAGACCUCAGGCCCGAAGCGUGGCGGCACCUGCCGCCGGUGGUAAAAAAGAUCGGAAGAGCACACGUCU [U8A G9A U10C U11C C13U] | 1.05
GGGUCGUAACCCAAUAAUCGCGUGGAUAUGGCACGCAAGUUUCUACCGGGCACCGUAAAUGUCCGACUGGAGCCGUUCGGGCGGCUAUAAACAGACCUCAGGCCCGAAGCGUGGCGGCACCUGCCGCCGGUGGUAAAAAAGAUCGGAAGAGCACACGUCU [U8A G9A U10C U11C C13A] | 1.03
GGGUCGUAACCCGAUAAUCGCGUGGAUAUGGCACGCAAGUUUCUACCGGGCACCGUAAAUGUCCGACUGGAGCCGUUCGGGCGGCUAUAAACAGACCUCAGGCCCGAAGCGUGGCGGCACCUGCCGCCGGUGGUAAAAAAGAUCGGAAGAGCACACGUCU [U8A G9A U10C U11C C13G] | 1.03
GGGUCGUAACGACAUAAUCGCGUGGAUAUGGCACGCAAGUUUCUACCGGGCACCGUAAAUGUCCGACUGGAGCCGUUCGGGCGGCUAUAAACAGACCUCAGGCCCGAAGCGUGGCGGCACCUGCCGCCGGUGGUAAAAAAGAUCGGAAGAGCACACGUCU [U8A G9A U10C U11G C12A] | 1.03
GGGUCGUAACGGCAUAAUCGCGUGGAUAUGGCACGCAAGUUUCUACCGGGCACCGUAAAUGUCCGACUGGAGCCGUUCGGGCGGCUAUAAACAGACCUCAGGCCCGAAGCGUGGCGGCACCUGCCGCCGGUGGUAAAAAAGAUCGGAAGAGCACACGUCU [U8A G9A U10C U11G C12G] | 1.38
GGGUCGUAACGUCAUAAUCGCGUGGAUAUGGCACGCAAGUUUCUACCGGGCACCGUAAAUGUCCGACUGGAGCCGUUCGGGCGGCUAUAAACAGACCUCAGGCCCGAAGCGUGGCGGCACCUGCCGCCGGUGGUAAAAAAGAUCGGAAGAGCACACGUCU [U8A G9A U10C U11G C12U] | 1.26
GGGUCGUAACGCCAUAAUCGCGUGGAUAUGGCACGCAAGUUUCUACCGGGCACCGUAAAUGUCCGACUGGAGCCGUUCGGGCGGCUAUAAACAGACCUCAGGCCCGAAGCGUGGCGGCACCUGCCGCCGGUGGUAAAAAAGAUCGGAAGAGCACACGUCU [U8A G9A U10C U11G] | 1.33
GGGUCGUAACCAAAUAAUCGCGUGGAUAUGGCACGCAAGUUUCUACCGGGCACCGUAAAUGUCCGACUGGAGCCGUUCGGGCGGCUAUAAACAGACCUCAGGCCCGAAGCGUGGCGGCACCUGCCGCCGGUGGUAAAAAAGAUCGGAAGAGCACACGUCU [U8A G9A U10C U11C C12A C13A] | 1.07
GGGUCGUAACCAGAUAAUCGCGUGGAUAUGGCACGCAAGUUUCUACCGGGCACCGUAAAUGUCCGACUGGAGCCGUUCGGGCGGCUAUAAACAGACCUCAGGCCCGAAGCGUGGCGGCACCUGCCGCCGGUGGUAAAAAAGAUCGGAAGAGCACACGUCU [U8A G9A U10C U11C C12A C13G] | 1.1
GGGUCGUAACCAUAUAAUCGCGUGGAUAUGGCACGCAAGUUUCUACCGGGCACCGUAAAUGUCCGACUGGAGCCGUUCGGGCGGCUAUAAACAGACCUCAGGCCCGAAGCGUGGCGGCACCUGCCGCCGGUGGUAAAAAAGAUCGGAAGAGCACACGUCU [U8A G9A U10C U11C C12A C13U] | 1.02
GGGUCGUAAGUGCAUAAUCGCGUGGAUAUGGCACGCAAGUUUCUACCGGGCACCGUAAAUGUCCGACUGGAGCCGUUCGGGCGGCUAUAAACAGACCUCAGGCCCGAAGCGUGGCGGCACCUGCCGCCGGUGGUAAAAAAGAUCGGAAGAGCACACGUCU [U8A G9A U10G C12G] | 1.16
GGGUCGUAAGUACAUAAUCGCGUGGAUAUGGCACGCAAGUUUCUACCGGGCACCGUAAAUGUCCGACUGGAGCCGUUCGGGCGGCUAUAAACAGACCUCAGGCCCGAAGCGUGGCGGCACCUGCCGCCGGUGGUAAAAAAGAUCGGAAGAGCACACGUCU [U8A G9A U10G C12A] | 1.2
GGGUCGUAACGUGAUAAUCGCGUGGAUAUGGCACGCAAGUUUCUACCGGGCACCGUAAAUGUCCGACUGGAGCCGUUCGGGCGGCUAUAAACAGACCUCAGGCCCGAAGCGUGGCGGCACCUGCCGCCGGUGGUAAAAAAGAUCGGAAGAGCACACGUCU [U8A G9A U10C U11G C12U C13G] | 1.22
GGGUCGUAACGUAAUAAUCGCGUGGAUAUGGCACGCAAGUUUCUACCGGGCACCGUAAAUGUCCGACUGGAGCCGUUCGGGCGGCUAUAAACAGACCUCAGGCCCGAAGCGUGGCGGCACCUGCCGCCGGUGGUAAAAAAGAUCGGAAGAGCACACGUCU [U8A G9A U10C U11G C12U C13A] | 1.17
GGGUCGUAACGUUAUAAUCGCGUGGAUAUGGCACGCAAGUUUCUACCGGGCACCGUAAAUGUCCGACUGGAGCCGUUCGGGCGGCUAUAAACAGACCUCAGGCCCGAAGCGUGGCGGCACCUGCCGCCGGUGGUAAAAAAGAUCGGAAGAGCACACGUCU [U8A G9A U10C U11G C12U C13U] | 1.22
GGGUCGUAACGGGAUAAUCGCGUGGAUAUGGCACGCAAGUUUCUACCGGGCACCGUAAAUGUCCGACUGGAGCCGUUCGGGCGGCUAUAAACAGACCUCAGGCCCGAAGCGUGGCGGCACCUGCCGCCGGUGGUAAAAAAGAUCGGAAGAGCACACGUCU [U8A G9A U10C U11G C12G C13G] | 1.24
GGGUCGUAACGGUAUAAUCGCGUGGAUAUGGCACGCAAGUUUCUACCGGGCACCGUAAAUGUCCGACUGGAGCCGUUCGGGCGGCUAUAAACAGACCUCAGGCCCGAAGCGUGGCGGCACCUGCCGCCGGUGGUAAAAAAGAUCGGAAGAGCACACGUCU [U8A G9A U10C U11G C12G C13U] | 1.17
GGGUCGUAACGGAAUAAUCGCGUGGAUAUGGCACGCAAGUUUCUACCGGGCACCGUAAAUGUCCGACUGGAGCCGUUCGGGCGGCUAUAAACAGACCUCAGGCCCGAAGCGUGGCGGCACCUGCCGCCGGUGGUAAAAAAGAUCGGAAGAGCACACGUCU [U8A G9A U10C U11G C12G C13A] | 1.28

Variant | aptazyme ON/OFF ratio
GGGUCGUAACGCUAUAAUCGCGUGGAUAUGGCACGCAAGUUUCUACCGGGCACCGUAAAUGUCCGACUGGAGCCGUUCGGGCGGCUAUAAACAGACCUCAGGCCCGAAGCGUGGCGGCACCUGCCGCCGGUGGUAAAAAAGAUCGGAAGAGCACACGUCU [U8A G9A U10C U11G C13U] | 1.17
GGGUCGUAACGCAAUAAUCGCGUGGAUAUGGCACGCAAGUUUCUACCGGGCACCGUAAAUGUCCGACUGGAGCCGUUCGGGCGGCUAUAAACAGACCUCAGGCCCGAAGCGUGGCGGCACCUGCCGCCGGUGGUAAAAAAGAUCGGAAGAGCACACGUCU [U8A G9A U10C U11G C13A] | 1.16
GGGUCGUAACGCGAUAAUCGCGUGGAUAUGGCACGCAAGUUUCUACCGGGCACCGUAAAUGUCCGACUGGAGCCGUUCGGGCGGCUAUAAACAGACCUCAGGCCCGAAGCGUGGCGGCACCUGCCGCCGGUGGUAAAAAAGAUCGGAAGAGCACACGUCU [U8A G9A U10C U11G C13G] | 1.18
GGGUCGUAACCUCAUAAUCGCGUGGAUAUGGCACGCAAGUUUCUACCGGGCACCGUAAAUGUCCGACUGGAGCCGUUCGGGCGGCUAUAAACAGACCUCAGGCCCGAAGCGUGGCGGCACCUGCCGCCGGUGGUAAAAAAGAUCGGAAGAGCACACGUCU [U8A G9A U10C U11C C12U] | 1.07
GGGUCGUAACCGCAUAAUCGCGUGGAUAUGGCACGCAAGUUUCUACCGGGCACCGUAAAUGUCCGACUGGAGCCGUUCGGGCGGCUAUAAACAGACCUCAGGCCCGAAGCGUGGCGGCACCUGCCGCCGGUGGUAAAAAAGAUCGGAAGAGCACACGUCU [U8A G9A U10C U11C C12G] | 1.05
GGGUCGUAACCUAAUAAUCGCGUGGAUAUGGCACGCAAGUUUCUACCGGGCACCGUAAAUGUCCGACUGGAGCCGUUCGGGCGGCUAUAAACAGACCUCAGGCCCGAAGCGUGGCGGCACCUGCCGCCGGUGGUAAAAAAGAUCGGAAGAGCACACGUCU [U8A G9A U10C U11C C12U C13A] | 1.04
GGGUCGUAACCUGAUAAUCGCGUGGAUAUGGCACGCAAGUUUCUACCGGGCACCGUAAAUGUCCGACUGGAGCCGUUCGGGCGGCUAUAAACAGACCUCAGGCCCGAAGCGUGGCGGCACCUGCCGCCGGUGGUAAAAAAGAUCGGAAGAGCACACGUCU [U8A G9A U10C U11C C12U C13G] | 1.05
GGGUCGUAACCUUAUAAUCGCGUGGAUAUGGCACGCAAGUUUCUACCGGGCACCGUAAAUGUCCGACUGGAGCCGUUCGGGCGGCUAUAAACAGACCUCAGGCCCGAAGCGUGGCGGCACCUGCCGCCGGUGGUAAAAAAGAUCGGAAGAGCACACGUCU [U8A G9A U10C U11C C12U C13U] | 1.05
GGGUCGUAAGUCCAUAAUCGCGUGGAUAUGGCACGCAAGUUUCUACCGGGCACCGUAAAUGUCCGACUGGAGCCGUUCGGGCGGCUAUAAACAGACCUCAGGCCCGAAGCGUGGCGGCACCUGCCGCCGGUGGUAAAAAAGAUCGGAAGAGCACACGUCU [U8A G9A U10G] | 1.46
GGGUCGUAAGUAAAUAAUCGCGUGGAUAUGGCACGCAAGUUUCUACCGGGCACCGUAAAUGUCCGACUGGAGCCGUUCGGGCGGCUAUAAACAGACCUCAGGCCCGAAGCGUGGCGGCACCUGCCGCCGGUGGUAAAAAAGAUCGGAAGAGCACACGUCU [U8A G9A U10G C12A C13A] | 1.42
GGGUCGUAAGUAUAUAAUCGCGUGGAUAUGGCACGCAAGUUUCUACCGGGCACCGUAAAUGUCCGACUGGAGCCGUUCGGGCGGCUAUAAACAGACCUCAGGCCCGAAGCGUGGCGGCACCUGCCGCCGGUGGUAAAAAAGAUCGGAAGAGCACACGUCU [U8A G9A U10G C12A C13U] | 1.36
GGGUCGUAAGUAGAUAAUCGCGUGGAUAUGGCACGCAAGUUUCUACCGGGCACCGUAAAUGUCCGACUGGAGCCGUUCGGGCGGCUAUAAACAGACCUCAGGCCCGAAGCGUGGCGGCACCUGCCGCCGGUGGUAAAAAAGAUCGGAAGAGCACACGUCU [U8A G9A U10G C12A C13G] | 1.15
GGGUCGUAACCGUAUAAUCGCGUGGAUAUGGCACGCAAGUUUCUACCGGGCACCGUAAAUGUCCGACUGGAGCCGUUCGGGCGGCUAUAAACAGACCUCAGGCCCGAAGCGUGGCGGCACCUGCCGCCGGUGGUAAAAAAGAUCGGAAGAGCACACGUCU [U8A G9A U10C U11C C12G C13U] | 1.07
GGGUCGUAACCGGAUAAUCGCGUGGAUAUGGCACGCAAGUUUCUACCGGGCACCGUAAAUGUCCGACUGGAGCCGUUCGGGCGGCUAUAAACAGACCUCAGGCCCGAAGCGUGGCGGCACCUGCCGCCGGUGGUAAAAAAGAUCGGAAGAGCACACGUCU [U8A G9A U10C U11C C12G C13G] | 1.13
GGGUCGUAACCGAAUAAUCGCGUGGAUAUGGCACGCAAGUUUCUACCGGGCACCGUAAAUGUCCGACUGGAGCCGUUCGGGCGGCUAUAAACAGACCUCAGGCCCGAAGCGUGGCGGCACCUGCCGCCGGUGGUAAAAAAGAUCGGAAGAGCACACGUCU [U8A G9A U10C U11C C12G C13A] | 1.03
GGGUCGUAACGAUAUAAUCGCGUGGAUAUGGCACGCAAGUUUCUACCGGGCACCGUAAAUGUCCGACUGGAGCCGUUCGGGCGGCUAUAAACAGACCUCAGGCCCGAAGCGUGGCGGCACCUGCCGCCGGUGGUAAAAAAGAUCGGAAGAGCACACGUCU [U8A G9A U10C U11G C12A C13U] | 1.17
GGGUCGUAACGAAAUAAUCGCGUGGAUAUGGCACGCAAGUUUCUACCGGGCACCGUAAAUGUCCGACUGGAGCCGUUCGGGCGGCUAUAAACAGACCUCAGGCCCGAAGCGUGGCGGCACCUGCCGCCGGUGGUAAAAAAGAUCGGAAGAGCACACGUCU [U8A G9A U10C U11G C12A C13A] | 1.19
GGGUCGUAACGAGAUAAUCGCGUGGAUAUGGCACGCAAGUUUCUACCGGGCACCGUAAAUGUCCGACUGGAGCCGUUCGGGCGGCUAUAAACAGACCUCAGGCCCGAAGCGUGGCGGCACCUGCCGCCGGUGGUAAAAAAGAUCGGAAGAGCACACGUCU [U8A G9A U10C U11G C12A C13G] | 1.23
